The target of the test is HIV-1 gp120 protein from the BaL.01 strain (HIV-1). Description: BLI. Background: BLI is a label-free optical method that tracks binding on a fibre tip over time.

Where two headings read alike, the source gives them in different places.

B1: FD22 (protein)
chain 1: QVQLSQSGGGAVQPGKSLTLSCRAYGFHLFSYVVVWVRQTPQNGLEWVAGAASGGWPQEFMNSVRGRFSISRDDYTVSLQMNALRVDDSGLYFCAQERGLHRLDGAVKFGRWFRAWGQGSQVVVTS
chain 2: QSALTQPASVSGSPGQSITLSCTGADNSVSWYQVVPGRAPKLLIFEVNVRPSEVSDRFSGSKSGDTASLTISRLQIEDESDYYCVTRRGDVTYLFGSGTRVSVL
A word on the Kd: it is a measure of binding affinity in units of concentration. Low values mean a tighter complex, high ones a looser complex. Regarding B1, the Kd (biotin (EZ-Link NHS-LC-Biotin) in the competition ELISA only | biotin (EZ-Link NHS-LC-Biotin) in the competition ELISA only) came out at 8.88 nM.

B2: VRC01 (protein)
chain 1: QVQLVQSGGQMKKPGESMRISCRASGYEFIDCTLNWIRLAPGKRPEWMGWLKPRGGAVNYARPLQGRVTMTRDVYSDTAFLELRSLTVDDTAVYFCTRGKNCDYNWDFEHWGRGTPVIVSS
chain 2: EIVLTQSPGTLSLSPGETAIISCRTSQYGSLAWYQQRPGQAPRLVIYSGSTRAAGIPDRFSGSRWGPDYNLTISNLESGDFGVYYCQQYEFFGQGTKVQVD
Molecule B2 had a Kd of 25.1 nM.

The values are drawn from publication PMC12149299.
